Assay results from US8709741B2, “Methods of diagnosing a plasmodium infection” (priority 2009, dated 2014).
Entries after “also recorded” stand apart in the source; their conditions may differ. Read-outs that look alike come from different tables or passages of the source.

B1: XIIB: recombinant human group XIIB sPLA2-like protein (protein, UniProt Q9BX93 20-195, looked up)
Group XIIB secretory …: QSDTSPDTEESYSDWGLRHLRGSFESVNSYFDSFLELLGGKNGVCQYRCRYGKAPMPRPGYKPQEPNGCGSYFLGLKVPESMDLGIPAMTKCCNQLDVCYDTCGANKYRCDAKFRWCLHSICSDLKRSLGFVSKVEAACDSLVDTVFNTVWTLGCRPFMNSQRAACICAEEEKEEL
B2: IIE: recombinant human group IIE secreted phospholipase A2 (protein, UniProt Q9NZK7 20-142, looked up)
Group IIE secretory …: NLVQFGVMIEKMTGKSALQYNDYGCYCGIGGSHWPVDQTDWCCHAHDCCYGRLEKLGCEPKLEKYLFSVSERGIFCAGRTTCQRLTCECDKRAALCFRRNLGTYNRKYAHYPNKLCTGPTPPC
B3: IIF: recombinant human group IIF secreted phospholipase A2, full length (protein, UniProt Q9BZM2 21-168, looked up)
Group IIF secretory …: SLLNLKAMVEAVTGRSAILSFVGYGCYCGLGGRGQPKDEVDWCCHAHDCCYQELFDQGCHPYVDHYDHTIENNTEIVCSDLNKTECDKQTCMCDKNMVLCLMNQTYREEYRGFLNVYCQGPTPNCSIYEPPPEEVTCSHQSPAPPAPP
B4: XIIA: recombinant human group XIIA secreted phospholipase A2 (protein, UniProt Q9BZM1 23-189, looked up)
Group XIIA secretory …: QEQAQTTDWRATLKTIRNGVHKIDTYLNAALDLLGGEDGLCQYKCSDGSKPFPRYGYKPSPPNGCGSPLFGVHLNIGIPSLTKCCNQHDRCYETCGKSKNDCDEEFQYCLSKICRDVQKTLGLTQHVQACETTVELLFDSVIHLGCKPYLDSQRAACRCHYEEKTDL
B5: V: recombinant human group V secreted phospholipase A2 (protein, UniProt P39877 21-138, looked up)
Phospholipase A2 group V: GLLDLKSMIEKVTGKNALTNYGFYGCYCGWGGRGTPKDGTDWCCWAHDHCYGRLEEKGCNIRTQSYKYRFAWGVVTCEPGPFCHVNLCACDRKLVYCLKRNLRSYNPQYQYFPNILCS
B6: III: recombinant human group III secreted phospholipase A2 (protein, UniProt Q9NZ20 20-509, looked up)
Group 3 secretory …: GSPALRWYRTSCHLTKAVPGNPLGYLSFLAKDAQGLALIHARWDAHRRLQSCSWEDEPELTAAYGALCAHETAWGSFIHTPGPELQRALATLQSQWEACRALEESPAGARKKRAAGQSGVPGGGHQREKRGWTMPGTLWCGVGDSAGNSSELGVFQGPDLCCREHDRCPQNISPLQYNYGIRNYRFHTISHCDCDTRFQQCLQNQHDSISDIVGVAFFNVLEIPCFVLEEQEACVAWYWWGGCRMYGTVPLARLQPRTFYNASWSSRATSPTPSSRSPAPPKPRQKQHLRKGPPHQKGSKRPSKANTTALQDPMVSPRLDVAPTGLQGPQGGLKPQGARWVCRSFRRHLDQCEHQIGPREIEFQLLNSAQEPLFHCNCTRRLARFLRLHSPPEVTNMLWELLGTTCFKLAPPLDCVEGKNCSRDPRAIRVSARHLRRLQQRRHQLQDKGTDERQPWPSEPLRGPMSFYNQCLQLTQAARRPDRQQKSWSQ
B7: IIA: recombinant human group IIA secreted phospholipase A2 (inflammatory type) (protein, UniProt P14555 21-144, looked up)
Phospholipase A2, membrane …: NLVNFHRMIKLTTGKEAALSYGFYGCHCGVGGRGSPKDATDRCCVTHDCCYKRLEKRGCGTKFLSYKFSNSGSRITCAKQDSCRSQLCECDKAAATCFARNKTTYNKKYQYYSNKHCRGSTPRC

How the values were obtained:
[1] = system: P. falciparum FcB1/Colombian strain; assay: Anti-Plasmodium activity assay (dose-response, 3H-hypoxanthine incorporation), culture with human serum; assay type: cell-based; conditions: for inhibition of P. falciparum development in vitro: standard P. falciparum cultures with serum
Method: (§1) The chloroquine-resistant P. falciparum FcB1/Colombian strain was used. Under the following culture conditions, the in vitro life cycle of the FcB1 strain was 48 hours. Cultures were grown in complete medium consisting of RPMI 1640 (Life Technologies, Inc.) supplemented with 11 mM glucose, 27.5 mM NaHCO3, 100 UI/mL penicillin, 100 μg/mL streptomycin, adjusted to pH 7.4 before addition of heat-inactivated human serum (A+ blood group, 8% final) or Albumax II® (0.5% final), according to the procedure of Trager and Jensen (1976). Parasites were routinely grown at 37° C. in human A+ RBCs (Red blood cells) at a 2% haematocrit and 2-6% parasitemia, in a 3% CO2, 6% O2 and 91% N2 atmosphere. Semi-synchronized cultures were established by Sorbitol (Lambros) treatment. Highly synchronized cultures (4 hour-window synchronization) were obtained by successive Plamion (Pasvol) and Sorbitol treatments. Parasitaemia and stage distribution were determined by optical examination of Diff-Quick stained culture smears. Parasitaemia (expressed in percent) is hundred times the number of parasitized erythrocytes divided by the total number of erythrocytes.
(§2) Dried preparations of the purified recombinant human sPLA2s were re-suspended at high concentration (usually 50 μM) in RPMI 0.05% BSA, and then tested individually for their capacity to inhibit the in vitro intra-erythrocytic development of P. falciparum. Dose-response assays based on ^3H-hypoxanthine incorporation by growing parasites were performed as in Guillaume et al. (2004). Radioactivity was measured with a 1450 Microbeta counter (Wallac, Perkin Elmer). Percentage of growth inhibition was calculated from the parasite-associated radioactivity compared with control without sPLA2. Values for the IC50 were determined from dose-response curves.

P. falciparum = assay: Anti-Plasmodium activity assay in Albumax II (serum substitute); assay type: cell-based; conditions: Albumax II instead of serum
Method: as §1, with “Highly synchronized cultures (4 hour-window synchronization) were obtained by successive Plamion (Pasvol) and Sorbitol treatments.” left out, “Parasitaemia (expressed in percent) is hundred times the number of parasitized erythrocytes divided by the total number of erythrocytes.” left out
as §2, with “Dose-response assays based on ^3H-hypoxanthine incorporation by growing parasites were performed as in Guillaume et al. (2004).” left out, “curves. […]” for “curves.”

[2] = Specific activities of sPLA2s on human plasma (NEFA release, NEFA-C kit); assay type: biochemical; conditions: for Specific activity ± SD (μmol NEFA/min × mg enzyme): whole human plasma, 37° C., linear part of kinetic curve, mean of three experiments
Method: Kinetic analysis of human plasma hydrolysis by sPLA2s was performed by mixing on ice 50 μL of crude plasma with recombinant sPLA2s at various final concentrations (respectively 2×, 5× and 10× the IC50 value). At time zero, the mixture was transferred to 37° C. Samples (7 μL) were taken after 5, 15, 30 and 60 minutes of incubation and quickly frozen at −20° C. An aliquot of plasma without enzyme was similarly processed. Concentration of non-esterified fatty acids (NEFAs) in each sample was measured by a discontinuous enzymatic method using the NEFA-C test kit from WAKO, following manufacturer's instructions. The amount of NEFAs in each enzyme-containing plasma sample was subtracted for NEFAs in enzyme-free plasma sample. Specific activity for each of the sPLA2s was determined from the linear part of the curve [NEFA]=f(t). Experiment was repeated three times with plasmas from different donors and different batches of sPLA2s.
Specific activities of sPLA2s on human plasma. Hydrolysis of plasma phospholipids by human and venom sPLA2s was assayed using different incubation times and enzymes concentrations. Hydrolysis was assessed by measuring the amount of NEFAs in samples using the colorimetric assay developed by WAKO (NEFA-C kit). Enzymatic production of NEFAs was corrected for endogenous production of NEFAs measured in the absence of sPLA2. Specific activity for each of the sPLA2s was determined from the linear part of the kinetic curve. Values are the mean of three independent experiments. SD: standard deviation. Anti-P. falciparum activities (IC50) of the respective sPLA2s are given for comparison.

[3] = Enzymatic hydrolysis of purified lipoproteins (NEFA); assay type: biochemical, human; conditions: 15 h at 37° C.
Method: CM/VLDL, LDL and HDL were purified from human plasma and used either fresh (F) or after minimal oxidization by air and light (Ox). After phospholipid content determination, plasma, LDL and HDL were adjusted to 1.6 mg PL/mL final concentration in PBS calcium. Because low amount was available, the CM/VLDL fraction was adjusted to 1.0 mg PL/mL. Each sample was incubated for 15 hours at 37° C., alone or in the presence of recombinant human GX sPLA2 (hGX PLA2; 25 nM), recombinant human GIIF sPLA2 (hGIIF PLA2; 125 nM), bee venom sPLA2 (bvPLA2; 0.18 nM) and Naja mossambica mossambica venom sPLA2 (Naja PLA2; 0.05 nM). NEFAs were quantified using the NEFA-C kit (WAKO). Values are the mean±SD of triplicate measurements. They were normalized by subtracting NEFA amount in the absence of enzyme. Two independent experiments with lipoproteins from different plasmas were performed, which gave similar qualitative results. Results from one experiment are shown;
Plasma and purified LDL and HDL were adjusted to 1.67 mg phospholipid (PL)/mL final concentration in PBS. Because purification yielded low amount of CM/VLDL, the CM/VLDL fraction was adjusted to 1.00 mg PL/mL. CaCl2 (1 mM final) was added to the lipoprotein fractions. 200 μL of each fraction were deposited in a 96-well plate and incubated for 15 hours at 37° C., alone or in the presence of recombinant human GX sPLA2 (hGX PLA2, 25.0 nM), recombinant human GIIF sPLA2 (hGIIF PLA2, 125.0 nM), bee venom sPLA2 (bvPLA2, 0.18 nM) and Naja mossambica mossambica venom sPLA2 (Naja PLA2, 0.05 nM). NEFAs were measured in triplicate using the NEFA-C kit (WAKO). Value from each fraction was normalized by subtracting the NEFA amount in the corresponding fraction without enzyme. Two independent experiments with lipoproteins from different plasmas were performed, which gave similar qualitative results. According to the experiment, maximum hydrolysis reached 50% or 65% of total PLs in the fraction. […]

[4] = Rosengren et al., 2006; cited from earlier work
[5] = culture in human red blood cells and serum, mean of independent dose-response assays, read-out: IC50 ± SD (anti-P. falciparum activity)
[6] = Table II, read-out: IC50 (nM), anti-P. falciparum activity given for comparison

Molecule	IC50 [1, 5] [nM]	inhibition of P. falciparum development in vitro [1]	further results
IB: recombinant human group IB secreted phospholipase A2	> 1250	non-toxic	
IID: recombinant human group IID secreted phospholipase A2	> 250	non-toxic	
B1	> 250	non-toxic	
B2	> 250	non-toxic	
B3	14.3 ± 10.4	active against P. falciparum	IC50 [1, 6]: 14.3 ± 13.4 nM; increase of IC50 value in Albumax II relative to its value in serum (P. falciparum): approximately 17.5 fold; Specific activity ± SD (μmol NEFA/min × mg enzyme) [2]: 0.92 ± 0.30 μmol NEFA/min × mg enzyme; hydrolysis of triglyceride-rich lipoproteins (CM/VLDL) ([3]; 125 nM): hydrolysed poorly; preferential order of lipoprotein hydrolysis ([3]; each sPLA2 at approximately 10×IC50): same preferential order than GX sPLA2
B4	> 250	non-toxic	
B5	162 ± 90.9	active against P. falciparum	IC50 [1, 6]: 162 ± 90.9 nM; Specific activity ± SD (μmol NEFA/min × mg enzyme) [2]: 0.33 ± 0.09 μmol NEFA/min × mg enzyme; hydrolysis of serum [4]: found active
B6		non-toxic	
B7	> 1250		inhibition of P. falciparum development in vitro ([1]; listed as GIIA): non-toxic; inhibition of P. falciparum development in vitro ([1]; listed as GIIA sPLA2): clearly inactive; also recorded: does not exhibit any inhibitory activity; hydrolysis of plasma ([2]; high concentration (1 μM), not shown): inefficient at hydrolysing plasma; hydrolysis of serum [4]: found inactive
